Measured values from article PMC6684861 (Traffic (Copenhagen, Denmark), 2018).
No end group written: not given here.

Target: His-tagged murine Importin α1 with the Importin β binding domain (IBB) deleted (ImpαΔIBB) (murine, UniProt P52293 70-529)
Assay: crystal structure

Binder	binding result
Ac-SHLSPRKKRPRQTGAL [TdT NLS peptide for crystallization, Ac-S7HLSPRKKRPRQTGAL]	binds
Ac-RGILKAFPKRQKIHADASSKVLAKIPRRE [pol λ NLS peptide for crystallization, Ac-R4GILKAFPKRQKIHADASSKVLAKIPRRE]	binds
Ac-LPKRRRARVGSPSGDAASSTPPSTRFPGV [pol μ NLS peptide for crystallization, Ac-L2PKRRRARVGSPSGDAASSTPPSTRFPGV]	binds
